Results published in publication PMC10079672, “Construction of a synthetic metabolic pathway for biosynthesis of 2,4-dihydroxybutyric acid from ethylene glycol” (Nature Communications, 2023).

Experiments:
Go.Adh = target: T1, Go.Adh (Gluconobacter oxydans, UniProt Q5FU50); assay: ethylene glycol dehydrogenase activity in protein extract; empty-plasmid extract inactive; assay type: biochemical; details: 50 mM ethylene glycol; NAD+
T1 construct: gene GOX0313; expressed from pEXT20 in E. coli TW64; protein extract
T1 sequence (Q5FU50 1-343): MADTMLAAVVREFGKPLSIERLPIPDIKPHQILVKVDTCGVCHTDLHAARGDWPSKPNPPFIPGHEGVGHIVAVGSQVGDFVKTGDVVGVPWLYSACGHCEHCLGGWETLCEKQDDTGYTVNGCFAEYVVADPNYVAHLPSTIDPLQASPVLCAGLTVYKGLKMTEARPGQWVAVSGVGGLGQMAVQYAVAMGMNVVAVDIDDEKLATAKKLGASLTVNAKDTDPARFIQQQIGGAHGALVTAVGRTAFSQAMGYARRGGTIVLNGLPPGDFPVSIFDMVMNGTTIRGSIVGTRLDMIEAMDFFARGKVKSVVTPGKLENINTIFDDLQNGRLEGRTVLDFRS

Ec.FucO = target: T2, Ec.FucO (Escherichia coli, UniProt P0A9S1); assay: as above; assay type: biochemical; details: 50 mM ethylene glycol; NAD+
T2 construct: expressed from pEXT20 in E. coli TW64; protein extract
T2 sequence (P0A9S1 1-382): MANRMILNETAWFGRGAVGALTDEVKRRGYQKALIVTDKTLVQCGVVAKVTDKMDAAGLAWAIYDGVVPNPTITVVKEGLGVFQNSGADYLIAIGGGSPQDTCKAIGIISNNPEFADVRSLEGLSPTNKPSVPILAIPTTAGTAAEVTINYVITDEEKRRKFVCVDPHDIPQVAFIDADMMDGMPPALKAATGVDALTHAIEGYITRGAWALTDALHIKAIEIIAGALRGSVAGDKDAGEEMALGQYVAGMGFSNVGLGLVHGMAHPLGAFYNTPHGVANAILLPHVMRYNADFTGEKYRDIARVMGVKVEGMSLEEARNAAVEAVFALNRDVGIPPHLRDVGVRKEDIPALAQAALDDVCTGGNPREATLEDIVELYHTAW

Hh.AraD = test system: T3, Hh.AraD; details: 37 °C
T3 construct: gene E2K99_19880

Pc.TadH = target: T4, Pc.TadH (Trinickia caryophylli, UniProt A0A1X7DDC2); assay: dehydrogenase activity, microplate; assay type: biochemical; details: NAD+ or NADP+; 37 °C
T4 construct: gene SAMN06295900_10348; N-terminal His tag (pET28a)
T4 sequence (A0A1X7DDC2 1-334): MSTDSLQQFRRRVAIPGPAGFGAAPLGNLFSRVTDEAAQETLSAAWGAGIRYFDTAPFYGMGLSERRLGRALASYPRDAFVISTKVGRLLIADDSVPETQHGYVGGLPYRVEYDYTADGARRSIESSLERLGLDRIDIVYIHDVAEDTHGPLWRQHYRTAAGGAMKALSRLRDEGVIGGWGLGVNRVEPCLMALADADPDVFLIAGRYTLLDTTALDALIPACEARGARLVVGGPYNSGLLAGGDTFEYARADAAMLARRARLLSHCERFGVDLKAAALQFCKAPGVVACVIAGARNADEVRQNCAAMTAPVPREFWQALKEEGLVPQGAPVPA

Bm.Fdh = target: T5, Bm.Fdh (Burkholderia multivorans, UniProt A0A0H3KNE7); assay: dehydrogenase activity, microplate; assay type: biochemical; details: NAD+ or NADP+, 10 mM cofactor, 10 mM sugar; 37 °C
T5 construct: gene BMULJ_04919; N-terminal His tag (pET28a)
T5 sequence (A0A0H3KNE7 whole entry): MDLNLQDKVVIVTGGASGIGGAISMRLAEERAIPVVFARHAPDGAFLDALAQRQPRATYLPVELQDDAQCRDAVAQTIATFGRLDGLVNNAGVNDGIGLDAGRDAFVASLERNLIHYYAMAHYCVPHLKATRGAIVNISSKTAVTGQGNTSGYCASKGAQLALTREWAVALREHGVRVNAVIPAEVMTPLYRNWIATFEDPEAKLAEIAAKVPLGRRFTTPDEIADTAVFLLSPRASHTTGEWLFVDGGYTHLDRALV

Sc.Ara1 = target: T6, Sc.Ara1 (Saccharomyces cerevisiae, UniProt P38115); assay: dehydrogenase activity, microplate; assay type: biochemical; details: NAD+ or NADP+, 10 mM cofactor, 10 mM sugar; 37 °C
T6 construct: N-terminal His tag (pET28a)

[1] = substrate: C[C@H](O)[C@H]1OC(=O)[C@@H](O)[C@@H]1O; assay: lactonase kinetics, Michaelis-Menten fit; assay type: biochemical, Thermogutta terrifontis; details: 37 °C
[2] = substrate: O=C1OC[C@@H](O)[C@@H]1O; assay: lactonase kinetics, Michaelis-Menten fit; assay type: biochemical, Thermogutta terrifontis; details: 37 °C
purified protein = substrate: O=C(O)[C@@H](O)[C@H](O)CO; assay: purified protein; details: 37 °C

OCCO [ethylene glycol]
activity (Go.Adh): all candidate enzymes were active on EG
activity (Ec.FucO): all candidate enzymes were active on EG

O=C(O)[C@@H](O)[C@H](O)CO [D-threonate]
Km (Hh.AraD): 1210 µM

O=C[C@@H](O)[C@H](O)CO [D-threose]
specific activity (no saturation up to 50 mM) (Pc.TadH): Sc.Ara1, Pc.TadH and Bm.Fdh displayed measurable activity on D-threose
specific activity (Bm.Fdh): Sc.Ara1, Pc.TadH and Bm.Fdh displayed measurable activity on D-threose
specific activity (Sc.Ara1): Sc.Ara1, Pc.TadH and Bm.Fdh displayed measurable activity on D-threose

B1: Tt.Lac11 (Thermogutta terrifontis) (protein)
chain: MRKLLGSSAIHVLSRRTGYGMYFLILALGVATQVVFGAEPSQNPSEKVAWIERADPGLDDLIAPDAQVEVLAEGFEWSEGPVWIPEGGYLLFSDVPKNTIYRWKEGQGIDIFLKPSGYTGFRERGGESGSNGLALDRQGRLLLCQHGDRRVARWEKGCFITLADQYEGKPLNSPNDLVVKSNGDIYFTDPPYGMTPEAQRDPNALGFCGVYRISADGKLTLLVRDMTRPNGIAFSPDEKTLYVAQSDPQRPLWMAFPVREDGTLGEGKVFFDAKPWQQSGLPGLPDGMKVDQKGNLFATGPGGVNIFRPDGTFLGRIRVKVPTANCAFGDDGSTLYITADMYLLRVKTKTKGLGF
notes: full-length with predicted N-terminal signal peptide; hexa-His tag (pET28a)
Km [1]: 0.84 (±0.06) × 10^-3 M
Km [2]: 2.92 (±0.13) mM
Vmax [2]: 1.76 µmol/min/mg
Vmax/Km [2]: 603 µL/min/mg

B2: Aa.AraD (Paracidovorax avenae ATCC 19860) (protein)
chain: MSTDALATQSLLILNDRDNVAVARTELGAGMELRLAGGEVLEVMATVPAGHKIALRPIAKGDAVLKYGQVIGAASTPIGAGEHVHVHNVEMGDSSPTHLVGRAYVPTDPVEQPATFMGYVRADGRVGTRNYIGVISSVNCSATVCKAIAQAFTGPALGAYPGVDGVVAITHGTGCGMSGEGEGIELLRRTLSGYIAHPNFAAVLVIGLGCEVNQVEGLTGRLPLPEGRVRTMTIQDAGGTREAIAQGIDIVRDMAAAASGARRTQVPASHLVVGLQCGGSDGYSGISANPVLGAAVDMLVRHGGTAILSETPEIYGAEHLLTARAASAEVAERLMARLAWWEAYTQRNGANMNNNPSPGNKAGGITTILEKSLGAVAKGGGSGLMDVVEYAQPVHSRGLVFMDTPGYDPVSATGQVAGGANLICFTTGRGSTYGCKPTPSLKLATNTALFRNMGMDMDFNAGDVVDGTLGIAQAGRHLFELMLATASGDRTLSETHGLGDNEFVPWQLGAVM
Km (purified protein): 1.95 (±0.53) mM
Vmax (purified protein): 0.12 µmol/min/mg
Vmax/Km (purified protein): 62 µL/min/mg
